# Substitutions are numbered along the chain they refer to.
# B1: GhCYP94C1 wild probe (dsDNA)
# DNA 1: CCAGCTCCTCGCGAAAAGAAAAATGACTAAAAAAATATTTAATTCTTAGT
# DNA 2: ACTAAGAATTAAATATTTTTTTAGTCATTTTTCTTTTCGCGAGGAGCTGG
# B2: GhCYP94C1 mutant probe (dsDNA)
# DNA 1: B1 DNA 1 with C27A, T28A
# DNA 2: B1 DNA 2 with A23T, G24T
# B3: GhRipen2-2 wild probe (dsDNA)
# DNA 1: CTGGGCTCAGGTCAGAAAAGCTTTACTCGGGGCTTGACTCGTTTTCTAA
# DNA 2: TTAGAAAACGAGTCAAGCCCCGAGTAAAGCTTTTCTGACCTGAGCCCAG
# Columns and labels:
# Conditions in all cases: protein: recombinant; tags: 6xHis (pET-28a(+))
# GhWRKY27 [1] = molecular target: T1, GhWRKY27 (Gossypium hirsutum (CCRI74), UniProt A0A068LI73 1-355); experiment: EMSA; self-competition abolishes band; supershift with anti-GhWRKY27; LightShift Chemiluminescent EMSA Kit (Thermo), manufacturer's instructions; buffer, salt, pH and temperature not stated
# GhWRKY27 [2] = molecular target: T1, GhWRKY27; experiment: competition; excess unlabelled mutant vs labelled N1; LightShift Chemiluminescent EMSA Kit (Thermo), manufacturer's instructions; buffer, salt, pH and temperature not stated
# GhWRKY27 [3] = molecular target: T1, GhWRKY27; experiment: EMSA; self-competition; supershift with anti-GhWRKY27; LightShift Chemiluminescent EMSA Kit (Thermo), manufacturer's instructions; buffer, salt, pH and temperature not stated
# T1 sequence (A0A068LI73 entry or part of it): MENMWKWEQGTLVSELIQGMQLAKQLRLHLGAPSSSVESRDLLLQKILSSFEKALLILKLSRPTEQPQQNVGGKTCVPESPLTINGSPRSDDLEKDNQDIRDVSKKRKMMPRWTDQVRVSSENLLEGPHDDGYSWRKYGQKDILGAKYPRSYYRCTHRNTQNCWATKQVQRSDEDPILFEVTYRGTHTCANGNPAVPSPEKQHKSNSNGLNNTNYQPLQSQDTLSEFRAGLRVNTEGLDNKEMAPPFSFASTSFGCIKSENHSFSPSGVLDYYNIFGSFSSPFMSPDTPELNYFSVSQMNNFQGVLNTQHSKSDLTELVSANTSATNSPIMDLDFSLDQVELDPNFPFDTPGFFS
binder,measurement,setting,value
B1,binding result,GhWRKY27 [1],binds
B2,binding result,GhWRKY27 [2],no binding
B3,binding result,GhWRKY27 [3],binds
